Measured values: patent US20250136721A1 (GlaxoSmithKline, published 2025)
Like-named read-outs stand apart in the source and are kept apart here.

Legend:
[1] = target: T1, Recombinant human TNFR1-Fc (human, UniProt P19438 30-211, limits assumed); test: ELISA: dAb on coated recombinant human TNFR1-Fc
T1 construct: bought reagent; also called hTNFR1:Fc; not shown: Fc part; not described
T1 sequence (looked up): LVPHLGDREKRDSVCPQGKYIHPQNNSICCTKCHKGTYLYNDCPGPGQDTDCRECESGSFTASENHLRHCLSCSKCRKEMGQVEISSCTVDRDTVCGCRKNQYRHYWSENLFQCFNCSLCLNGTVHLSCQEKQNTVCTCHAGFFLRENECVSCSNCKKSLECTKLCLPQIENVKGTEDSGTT

[2] = target: pre-existing anti-VH ADA in human serum; test: ADA confirmation assay (MSD): 10 ug/mL test material against labelled DOM1H-131-206; share of 10 ADA-positive sera with binding
[3] = target: pre-existing anti-VH ADA in human serum; test: ADA confirmation assay (MSD): 10 ug/mL test material against labelled DOM1H-131-206, mean of 10 sera
[4] = target: pre-existing anti-VH ADA in human serum; test: as above; remark: listed apart in the source
[5] = target: T1, Recombinant human TNFR1-Fc; test: ELISA: dAb on coated recombinant human TNFR1-Fc, anti-Vh detection
[6] = target: pre-existing anti-VH ADA in human serum; test: ADA confirmation assay (MSD): 10 ug/mL test material against labelled DOM1H-131-206; share of 10 ADA-positive sera with binding; remark: listed apart in the source

B1: DOM1H-131-206 C-terminal ASTKGP (other)
VH: EVQLLESGGGLVQPGGSLRLSCAASGFTFAHETMVWVRQAPGKGLEWVSHIPPDGQDPFYADSVKGRFTISRDNSKNTLYLQMNSLRAEDTAVYHCALLPKRGPWFDYWGQGTLVTVSSASTKGP
notes: VH dAb variant
For B1, the “fold change of EC50 against the parental dAb DOM1H-131-206” value [1] was ~5 fold, the % subjects with ADA binding (10 subjects) (% of subjects) [2] was 60 and the Mean % inhibition of signal in confirmation assay [3] was 42.6%.

B2: DOM1H-131-206 A84T (other, name in Kabat numbering)
VH: EVQLLESGGGLVQPGGSLRLSCAASGFTFAHETMVWVRQAPGKGLEWVSHIPPDGQDPFYADSVKGRFTISRDNSKNTLYLQMNSLRTEDTAVYHCALLPKRGPWFDYWGQGTLVTVSS
notes: VH dAb variant
B2 was tested, and the Mean % inhibition of signal in confirmation assay [4] was 91%, the EC50 [5] was 790 pM and the % subjects with ADA binding (10 subjects) (% of subjects) [6] was 100.
